Target: T1, Tay1p (YlTay1p) (Yarrowia lipolytica, UniProt Q6C9I6 1-406)
T1 sequence: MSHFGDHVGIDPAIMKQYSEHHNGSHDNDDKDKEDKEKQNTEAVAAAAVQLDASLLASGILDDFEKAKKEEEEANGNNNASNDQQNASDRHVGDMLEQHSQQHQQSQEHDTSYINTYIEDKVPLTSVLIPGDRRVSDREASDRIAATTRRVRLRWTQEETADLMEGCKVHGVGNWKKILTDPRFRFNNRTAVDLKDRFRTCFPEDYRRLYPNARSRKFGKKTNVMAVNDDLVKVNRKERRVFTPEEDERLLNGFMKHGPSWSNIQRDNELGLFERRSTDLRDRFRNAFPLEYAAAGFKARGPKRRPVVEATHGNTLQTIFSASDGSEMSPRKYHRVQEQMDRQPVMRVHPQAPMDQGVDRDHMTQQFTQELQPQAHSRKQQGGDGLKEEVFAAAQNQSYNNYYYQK
Assay: EMSA; 20 mM HEPES-NaOH pH 7.3, 100 mM NaCl, 16 nM dsDNA probe (3-fold molar excess of unlabelled C strand used in annealing), 10 min at room temperature; 6% PAGE in cold 0.5x TBE
Settings: protein: recombinant; label: 5'-32P on G strand; blunt

B1: Y. lipolytica telomeric probe YlipTEL (2 repeats) (dsDNA)
DNA 1: TTAGTCAGGGTTAGTCAGGG
DNA 2: CCCTGACTAACCCTGACTAA
B1: binds.

Source: article PMC6746865, “Identification of telomerase RNAs in species of the Yarrowia clade provides insights into the co-evolution of telomerase, telomeric repeats and telomere-binding proteins”
